Experimental data taken from patent publication US7893021B2, “Parathyroid hormone antagonists and uses thereof” (Scantibodies Laboratory, Inc., priority 1999, dated 2011).
Where “and” joins values, the source holds several entries; their conditions need not be identical. Equal entries are not always repeated. Entries after “also recorded” stand apart in the source; their conditions may differ.

Key:
ROS/17.2 cells = test: cAMP production in osteoblastic cell line ROS/17.2; assay type: cell-based, rat; details: for intracellular cAMP: 10^-8 mol/L peptide, five-minute incubation, N=6, before treatment 18.1±1.25
Protocol: Osteoblastic cell line. To compare the biological effects of the two peptides (HPTH 1-84 and 7-84), intracellular cAMP production was measured in the rate osteosarcoma cell line ROS/17.2, which has an osteoblastic phenotype and is known to increase cAMP production in response to PTH. Cells were cultured in Ham's F12 media containing 10% fetal bovine serum. Cells were plated out in 12 well plates at a density of 30,000 cells per well and grown to confluence. Cells were washed three times with KHMS buffer at 37° C. (KCI 4.0 mmol/L, CaCl2 1.25 mmol/L, MgSO4 1.25 mmol/L, KH2PO4 1.2 mmol/L, HEPES 10 mmol/L, NaCl 100 mmol/L, NaHCO3 37 mmol/L, and glucose 10 mmol/L, pH 7.5). cAMP production was measured using 500 μL of KHMS buffer (37°) containing isobutyl-1 methylxantine (1BMX) 1.0 mmol/L and various concentrations (10^−11 to 10^−8 mol/L) of hPTH 1-84 or hPTH 7-84. After a five-minute incubation, 100 μL of 1.8 mol/L pechloric acid were added. After an additional five-minute incubation at room temperature, 100 μL of 3 mol/KHCO3 were added to neutralize the acid. Samples were centrifuged at 3000 rpm for 15 minutes, and the supernatants were assayed for cAMP [26].

[1] = test system: rats having hypoparathyroidism (parathyroid glands removed); test: Serum calcium after i.v. injection in rats with parathyroid glands removed; assay type: in vivo, rat
Description: The CAP rebound effect is believed to be the body's response to an administration of CIP. This response occurs when the parathyroid gland cells secrete CAP in an effort to return the CAP/CIP ratio to homeostasis with the pre-CIP administration levels. PTH antagonist administration is not accompanied by hypercalcemia and osteosarcoma, as with direct CAP administration. […] All of the rats had their parathyroid glands removed. Five rats received an i.v. injection of a saline control. The serum calcium of the control rats was measured and on average was lowered over time by about 0.18 mg/dl by virtue of a parathyroidectomy. Nine rats received an i.v. injection (10 μg/kg) of hPTH obtained from Bachem, AG of Bubendorf, Switzerland. The serum calcium of the hPTH rats was measured and on average was raised over time by about 0.65 mg/dl. Five rats received an equimolar i.v. injection of a PTH7-84 (an exemplary PTH antagonist) also obtained from Bachem, AG of Bubendorf, Switzerland. The serum calcium of the PTH antagonist rats was measured and on average was lowered over time by about 0.30 mg/dl. Finally, six rats received an i.v. injection comprised of hPTH (10 μg/kg) and an equimolar amount of PTH antagonist PTH7-84. The serum calcium of the hPTH/PTH antagonist rats was measured and on average remained substantially the same over time, raising only about 0.03 mg/dl.

[2] = test system: Normal female Sprague-Dawley rats; test: Phosphaturic response (clearance studies: GFR and FEPO4) in rats; assay type: in vivo, rat; details: for glomerular filtration rate (GFR), hPTH 7-84 given with hPTH 1-84: hPTH 7-84 given five minutes prior to hPTH 1-84, molar ratio 4:1, N=8, control period 2.1±0.1
Protocol: Phosphaturic response. Normal female Sprague-Dawley rats weighing 225 to 250 g were prepared for clearance studies under light anesthesia. Polyethylene catheters (PE50) were placed in the femoeral artery for the collection of blood and measurement of blood pressure (Blood Pressure Analyzer; Micro-Medic, Inc., Louisville, Ky., USA), in the femoral vein for infusion and in the bladder for the collection of urine. Rats were placed in Plexiglass holders and allowed to recover from the effect of the anesthetic for one hour. A priming dose (0.6 mL) of chemical inulin in saline was administered over a period of three minutes to achieve a plasma inulin level between […]. A solution of saline containing inulin to maintain this level and calcium gluconate to deliver 0.5 mg. calcium was infused at the rate of 0.03 mL/min. After equilibration, a total of four 30-minute urine collections was obtained.
To assess the effect of hPTH 1-84 on phosphate excretion, urine was collected during two control periods, after which rats received a priming bolus of 1.8 μg of HPTH 1-84 followed by a sustained infusion that delivered a total of 8.2 μg of I-PTH. After an equilibration period of 20 minutes, two 30-minute urine collections were obtained. In competition experiments, HPTH 7-84 was given five minutes prior to hPTH 1-84 at a molar ratio of 4:1.
Blood samples and blood pressure measurements were recorded at the beginning and end of the baseline period, at the beginning of the PTH infusion period, and at the end of the study. The concentration of inulin in plasma and urine was determined by the method of Führ, Kaczmarczyk, and Kruttgen, Klin Wochenschr, 33:729-730 (1955). The estimation of the glomerular filtration rate (GFR) by inulin clearance and the calculation of the fractional urinary excretion rate of phosphorus (FEP04) were performed in the standard fashion. Blood samples were centrifuged, and plasma phosphorus and calcium concentrations were measured.

[3] = test system: parathyroidectomized (PTX) rats; test: Calcemic response in parathyroidectomized (PTX) rats fed a 0.02% calcium diet; assay type: in vivo, rat; details: hPTH 7-84 given 10 minutes prior to each hPTH 1-84 injection, 1:1 molar ratio, N=6
Protocol: Calcemic response. Normal female Sprague-Dawley rats weighing 225 to 250 g (Harlan, Indianapolis, Ind., USA) were parathyroidectomized (PTX) and fed a 0.02% calcium diet. Rats with a plasma calcium below 7.0 mg/dL after overnight fasting were included in the study. A 20 μg dose of hPTH 1-84 or 7-84 was given intraperitoneally to PTX rats in four doses of 5 μg each at 30-minute intervals (0, 30, 60, and 90 minutes). For control studies, the rats received vehicle (saline solution) alone. Blood was drawn via the tail at 0, 60, 90, and 120 minutes. For competition experiments, rats received an injection of hPTH 7-84 10 minutes prior to each injection of hPTH 1-84. The molar ratio of hPTH 7-84:hPTH 1-84 was 1:1.
Total plasma calcium levels were determined using an atomic absorption spectrophotometer (model 110B; Perkin Elmer, Norwalk, Conn., USA). Plasma phosphorus levels were determined using an autoanalyzer (COBAS MIRA Plus; Roche, Newark, N.J., USA).

B1: hPTH 1-84: Synthetic human PTH 1-84, the whole 84 amino acid parathyroid hormone (SEQ ID NO:1), PTH agonist, purchased from Bachem (peptide)
chain: SVSEIQLMHNLGKHLNSMERVEWLRKKLQDVHNFVALGAPLAPRDAGSQRPRKKEDNVLVESHEKSLGEANKADVNVLTKAKSQ
ROS/17.2 cells
  intracellular cAMP: 738±4.13 nmol/well and 738±4.1 nmol/well
ROS/17.2 cells; 10^-11 to 10^-8 mol/L peptide
  cAMP production, dose dependence: increased cAMP production in a does-dependent manner; also recorded: increased cAMP production in a dose-dependent manner
[1]; i.v. injection 10 μg/kg hPTH alone, nine rats, saline control lowered about 0.18
  serum calcium raised over time (average): about 0.65 mg/dl
[2]; rats infused with hPTH 1-84 alone, N=10, control period 1.8±0.3
  glomerular filtration rate (GFR): 1.8 ± 0.1 mL/min
[2]; rats infused with hPTH 1-84 alone, N=10, control period 11.9±2.4
  fractional excretion of phosphate (FEP04): 27.7±2.4%

B2: hPTH 7-84: Synthetic human PTH 7-84 fragment, an exemplary PTH antagonist, obtained from Bachem (peptide)
peptide: LMHNLGKHLNSMERVEWLRKKLQDVHNFVALGAPLAPRDAGSQRPRKKEDNVLVESHEKSLGEANKADVNVLTKAKSQ
ROS/17.2 cells
  intracellular cAMP: no effect
[3]
  decrease of the calcemic response induced by hPTH 1-84: 94%
[1]; i.v. injection of PTH7-84 alone, equimolar to 10 μg/kg hPTH, five rats, saline control lowered about 0.18
  serum calcium lowered over time (average): about 0.30 mg/dl
[1]; i.v. injection of hPTH (10 μg/kg) and an equimolar amount of PTH7-84, six rats
  serum calcium raised over time (average), co-injection with hPTH: about 0.03 mg/dl
[1]; prevention of the hPTH-induced serum calcium increase in rats
  antagonist property compared with PTH3-34: much more potent in its antagonist property than the previously reported antagonist PTH3-34
[2]; hPTH 7-84 coadministered with hPTH 1-84, molar ratio 4:1
  decrease of the increase in FEP04 (phosphaturia) induced by hPTH 1-84: 50.2%
[2]
  glomerular filtration rate (GFR), hPTH 7-84 given with hPTH 1-84: 2.6 ± 0.2 mL/min
[2]; listed as 7-84 PTH
  glomerular filtration rate (GFR), hPTH 7-84 given with hPTH 1-84: significant increase
